Experimental findings from the domain aggregation screens of Martell et al. (2025) are described below.

A short description of this series: soluble fraction after stress (log2 fold change); higher = more stays soluble; pooled small domains, quantitative proteomics. The note with it: stress: pH 4. The procedure, abridged: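 Following acid stress at pH 4, the amount of each small protein domain still soluble was measured in pooled custom libraries by high-throughput quantitative proteomics. Its fold change, on a log2 scale, is higher when more of the domain stayed soluble. This fold change is taken as a measure of aggregation propensity.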
With “HMFADLNPDENYGQVYIRTNTIDNLYQTLLDNKTRIHPNGLLELKPWGQKEFSILDPDKNLLTFGES”, the “soluble fraction (log2)” value is -0.317.
In the case of “HMFAERLKELRKMRRFSQHALAERLGISQQAVGKWETGKSTPDPATLREIADIFEVSVDLLLGR” it was 0.124; in that of “HMFDDEELDRFAGVPADAYLPADEDEFREVFYTMRPGEVVEWVRSLELRHIEIPNGIKDEIFMMIR”, -3.37; in that of “HMFDEDKLIISIGSKVRIIREPYFGTIGKVVELPPELVKMDTEAMLRVAIIKLDDGEKVTIPRANLEVILS”, -0.87.
In the case of “HMFDEVKDAARRLAALLDQAGGTLTLNDKSAPEEVAALTGMSKKVFKRALGHLMSRSEVVVADGRITKKD” it was -0.196.
In the case of “HMFDGRSDAEKTLDLIKTAIDNILKGGAIQEYKIGTRTAKKYDMAELQVLKGEYAAMVAREKQAETMA” it was -0.481; in that of “HMFDGVAAGKPAILDALEDAGGFLPLNSKSSVEEIQASFSFSKRVFKQLIGMLYKERKIVITDDGIRLAD”, -0.654; in that of “HMFDGYQWLKRDIIRGVYQPEEKLRMSLLTNRYGLGVGPLREALSQLVAEHLVTVVSQKGYRVAPM”, -0.0817.
For “HMFDKNKPVVVEGENAEVALKKVSKYFNVPTEKLDYTLLGQKSAGLLGIGSKVYQFKVWLKREIP”, the “soluble fraction (log2)” value was not below 0.43.
With “HMFDLENIRLTLARRLNVAAHLRPKYVAGFTLLLKQNFPEQNAEDLLNRLEHNQWLKVNQREIEYSPRLLM” the figure was -1.23.
As for “HMFDPAKQMQRIRKYAGMNRKEFSEWLNIPYRTMTDWELGNRTMPVYLLELIVYKVNHEIANA”, the “soluble fraction (log2)” value is -0.349.
With “HMFDREKFIKLGQEFARVAFENVNKRATDRALKTAAKHYGLPSADELLARLGSSEIAARDVVAELYPNL” the figure was -0.28; with “HMFDSYDIYDEAGNTVNTVKGKLSWGHLLEIYDRFDNHIGTVQERVLTFLPKFLMYINGQEIGEIR”, -0.334.
With “HMFDVNSMIAANIVAILKKQNRKQIDLAGALQTNKQTISKMLNGSRMINAIELKRIAEFLGVKMEELTKL” the figure was 0.0597; with “HMFDVRWEQGYALAAAYAQEYGNLDVPRDYKTADGKKLGRWIQSQEQAYEQKKLSEEQISRLEMIGMQWG”, 0.0698; with “HMFEDEPSEREIRISTLLAAFLKQEDGGTAVSRERFLKENSDVAEDLQILLEMADMIQEMAGP”, -0.744.
In the case of “HMFEKIDINFADIHQLKGLPLNSEQINSIIEYRNQNGFIENIYDLKNVNGISIDKVHELKSYIFIIDV” it was -1.96; in that of “HMFENPRALLEMMISLGNEQGLINMARDIVSAGEFRRLELAAGGDRRKLARMLIDHLVEVAPRLP”, -0.585.
Take “HMFEQFEVENLQELQQEWGDKFNHNLEMARRAFMNFATPEAVKVLEETGMGNHPELLKVFARIGEVLAED”: the “soluble fraction (log2)” value is -1.22.
In the case of “HMFERINLIGVNGTTKKRSALVRLLDGEIVKIGVGDSLNGGQVVDISPATLTYLKSGKSIMLTLPK”, the “soluble fraction (log2)” value came out at 0.22.
In the case of “HMFGQRLRLARKRAGLSMQALAQRMSPPVTAQAISKYEADRMMPSSAVLVGLGKALGVSLDFLMGGQ” it was 0.068; in that of “HMFHFELNAAKQALEDRKTIDRAKGILMRQRGMSEDDAYKLLRTTAMSQNRKVIDVAQALVTAADLL”, 0.292.
In the case of “HMFINTVELGRAIKRRREELGLSLRDVADVTNVSASTLSRIENGTGKPDADNIARLTGWLDMPIDRVM” it was 0.164.
With “HMFIRINQTQNSPRKSVQIVESKRDGHKVRTKILRHVGIAMDDVELQKLKSLAQDIIAKMTVETENASKQ”, the “soluble fraction (log2)” value turned out to be 0.176.
With “HMFKINQKVKLIAPLPYLKTSENMPMLRPPDLVAIDEIGEVLSLKSPETVEVRFRRGSFLIDIDKLEKVD” the figure was -0.996; with “HMFKYLLDTNIVIYVIKKRPIEVMGVFNQNANRMAISAITFSELQHGAEKSVRVQENLNAIEEFTTLIDI”, -0.537; with “HMFKYRELLDWAKNRFDDLEVSIAPKALALLVESIGTDLRLLDSEIQKLSMYKPLEMISTNDVEDLVA”, -1.15.
In the case of “HMFLTDHEVSKVARKRAHAEYLSSLSWRQRTFGDHGERSKNFEAWYKEHSHLYETEKLYKELYKN” it was 0.245.
